Measurements published in PMC10033409, “Autoregulation of GPCR signalling through the third intracellular loop” (Nature, 2023).

Target: T1, β2 adrenergic receptor (β2AR), wild type, receptor part of the β2AR–G peptide SPASM FRET sensor (human, UniProt P07550)
T1 construct: β2 adrenergic receptor (β2AR), human; One polypeptide: Receptor-4×GSG-mCitrine-4×GSG-10 nm ER/K linker-4×GSG-mCerulean-4×GSG-G peptide; the receptor and the G peptide (m5 or m6) are tethered on the same chain; also called WT; wild-type β2AR–Gs peptide sensor; source: HEK 293T Flp-In T-Rex cells, transfected, crude membrane extracts; not shown: mCitrine, C-terminal, kept
Assay: FRET or BRET; ∆FRET assay of β2AR SPASM sensors in membrane extracts; purified Nb6B9 added to quench the agonist-induced change in FRET
Conditions: one partner purified

binding result: binds
B1: Nanobody Nb6B9 (Nb6B9-2×GSG-SNAP tag-Flag-2×GSG-6×His) (VHH)
VHH: QVQLQESGGGLVQAGGSLRLSCAASGSIFALNIMGWYRQAPGKQRELVAAIHSGGTTNYANSVKGRFTISRDNAANTVYLQMNSLKPEDTAVYYCNVKDFGAIIYDYDYWGQGTQVTVSS
notes: Cloned into a pBiex1 backbone; source: E. coli JM109, purified (Ni-NTA, Superdex 200 gel filtration)
